Assay [1] concerns the target recombinant human ILT2 protein (analyte in SPR and Octet) (human) (UniProt Q8NHL6). In words: BLI (Octet RED96), mAb captured on AMC biosensor, 1:1 model.
In assay [2] the target is ILT2 on primary human NK cells (human) (UniProt Q8NHL6). In words: flow cytometry, primary NK cells.
Assay [3] deals with human ILT-2 (LILRB1), complete form expressed at the cell surface (human) (UniProt Q8NHL6). In words: flow cytometry, CHO-ILT2 cells. In general terms: In flow cytometry, cells or beads pass a laser one at a time.
The target of assay [4] is recombinant human CD16a(V) (human) (UniProt P08637). In words: SPR, antibody immobilized, soluble FcR, steady state.
For assay [5], the target named is recombinant human CD16a(F) (human) (UniProt P08637). The description is as above.
For assay [6], the target named is recombinant human CD32a (human) (UniProt P12318). The assay is described as above.
Assay [7] deals with recombinant human CD16b (human) (UniProt O75015). The description is as above.
In assay [8] the target is human FcRn (human) (UniProt P55899). In words: SPR, antibody immobilized, soluble FcR. On the technique in general: SPR reads the build-up and loss of mass on a sensor chip optically.
Assay [9] has as its target recombinant human CD32b (human) (UniProt P31994). In words: SPR, antibody immobilized, soluble FcR, steady state.
For assay [10], the target named is recombinant human CD64 (human) (UniProt P12314). In words: SPR, antibody immobilized, soluble CD64, 1:1 kinetic model.
Chain of recombinant human CD64 (human) (P12314 16-288 limits assumed): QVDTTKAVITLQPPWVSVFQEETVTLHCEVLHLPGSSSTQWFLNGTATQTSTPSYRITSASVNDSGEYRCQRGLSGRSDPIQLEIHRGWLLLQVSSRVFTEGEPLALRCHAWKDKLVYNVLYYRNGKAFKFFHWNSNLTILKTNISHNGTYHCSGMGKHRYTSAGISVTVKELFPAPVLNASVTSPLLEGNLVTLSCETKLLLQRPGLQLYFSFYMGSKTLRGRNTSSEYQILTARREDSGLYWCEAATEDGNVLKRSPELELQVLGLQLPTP

Chain of human FcRn (human) (P55899 24-297 limits assumed, chain 1 of 2): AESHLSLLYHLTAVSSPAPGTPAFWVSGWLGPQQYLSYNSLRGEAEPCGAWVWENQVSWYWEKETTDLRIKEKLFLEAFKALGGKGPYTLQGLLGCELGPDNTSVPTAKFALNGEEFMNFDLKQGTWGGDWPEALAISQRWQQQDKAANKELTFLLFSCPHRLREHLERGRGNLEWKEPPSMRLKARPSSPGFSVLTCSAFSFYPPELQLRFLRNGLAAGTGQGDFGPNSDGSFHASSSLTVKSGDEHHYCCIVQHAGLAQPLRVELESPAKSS
Chain of human FcRn (human) (chain, as listed by the source limits assumed, chain 2 of 2): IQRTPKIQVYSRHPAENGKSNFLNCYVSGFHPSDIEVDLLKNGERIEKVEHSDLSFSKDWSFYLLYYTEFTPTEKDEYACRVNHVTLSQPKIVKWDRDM
Chain of recombinant human CD16a(V) (human) (P08637 17-208 F176V limits assumed): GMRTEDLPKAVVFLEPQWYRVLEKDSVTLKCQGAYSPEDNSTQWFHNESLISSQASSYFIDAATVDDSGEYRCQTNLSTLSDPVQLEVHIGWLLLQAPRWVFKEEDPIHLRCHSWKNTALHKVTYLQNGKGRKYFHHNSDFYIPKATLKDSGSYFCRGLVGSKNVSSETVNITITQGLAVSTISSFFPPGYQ
Chain of recombinant human CD32a (human) (P12318 36-218): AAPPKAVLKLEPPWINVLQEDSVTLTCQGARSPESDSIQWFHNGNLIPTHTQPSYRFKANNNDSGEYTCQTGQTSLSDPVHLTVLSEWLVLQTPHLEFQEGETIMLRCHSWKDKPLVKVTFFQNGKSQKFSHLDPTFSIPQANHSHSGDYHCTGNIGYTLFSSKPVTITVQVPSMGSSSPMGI
Chain of recombinant human CD32b (human) (P31994 46-217): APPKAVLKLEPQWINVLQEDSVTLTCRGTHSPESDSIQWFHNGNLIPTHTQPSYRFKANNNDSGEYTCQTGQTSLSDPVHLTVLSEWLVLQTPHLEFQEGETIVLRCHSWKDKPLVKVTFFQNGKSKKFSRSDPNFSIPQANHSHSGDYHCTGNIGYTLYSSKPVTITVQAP
Chain of recombinant human ILT2 protein (analyte in SPR and Octet) (human) (Q8NHL6 24-458 limits assumed): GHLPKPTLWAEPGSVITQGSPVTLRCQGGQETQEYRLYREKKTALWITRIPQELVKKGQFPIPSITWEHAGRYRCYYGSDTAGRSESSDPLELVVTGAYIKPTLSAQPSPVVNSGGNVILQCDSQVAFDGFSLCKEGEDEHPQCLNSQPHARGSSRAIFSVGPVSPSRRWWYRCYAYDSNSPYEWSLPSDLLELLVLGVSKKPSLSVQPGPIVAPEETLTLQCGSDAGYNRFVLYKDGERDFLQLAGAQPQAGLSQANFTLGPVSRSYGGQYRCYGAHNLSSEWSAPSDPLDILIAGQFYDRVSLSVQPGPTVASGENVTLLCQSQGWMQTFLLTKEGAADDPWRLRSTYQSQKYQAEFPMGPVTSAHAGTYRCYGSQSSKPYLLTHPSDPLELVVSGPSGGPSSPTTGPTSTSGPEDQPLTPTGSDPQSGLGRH
Chain of recombinant human CD16a(F) (human) (P08637 17-208 limits assumed): as the sequence (P08637 17-208 F176V limits assumed) above, with V160F counted along it
Chain of human ILT-2 (LILRB1), complete form expressed at the cell surface (human) (Q8NHL6 24-650): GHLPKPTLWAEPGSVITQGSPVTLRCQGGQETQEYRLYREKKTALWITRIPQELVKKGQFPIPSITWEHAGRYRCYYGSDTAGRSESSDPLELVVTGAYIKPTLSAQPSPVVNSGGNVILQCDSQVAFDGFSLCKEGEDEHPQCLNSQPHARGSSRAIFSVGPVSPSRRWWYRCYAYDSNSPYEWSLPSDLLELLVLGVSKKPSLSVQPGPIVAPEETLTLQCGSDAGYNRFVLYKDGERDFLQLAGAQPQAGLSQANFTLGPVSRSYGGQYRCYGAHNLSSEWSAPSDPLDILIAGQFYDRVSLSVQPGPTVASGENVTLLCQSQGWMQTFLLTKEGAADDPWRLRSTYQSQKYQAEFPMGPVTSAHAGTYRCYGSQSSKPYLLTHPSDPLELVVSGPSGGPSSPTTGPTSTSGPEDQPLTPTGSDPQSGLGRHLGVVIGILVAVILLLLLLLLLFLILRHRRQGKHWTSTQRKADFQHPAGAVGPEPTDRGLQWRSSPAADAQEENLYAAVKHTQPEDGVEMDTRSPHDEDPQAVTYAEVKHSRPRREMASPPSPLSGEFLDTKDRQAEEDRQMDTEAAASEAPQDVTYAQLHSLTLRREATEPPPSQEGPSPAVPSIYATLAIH
Chain of ILT2 on primary human NK cells (human) (Q8NHL6 24-650): as above
Chain of recombinant human CD16b (human) (O75015 17-200 limits assumed): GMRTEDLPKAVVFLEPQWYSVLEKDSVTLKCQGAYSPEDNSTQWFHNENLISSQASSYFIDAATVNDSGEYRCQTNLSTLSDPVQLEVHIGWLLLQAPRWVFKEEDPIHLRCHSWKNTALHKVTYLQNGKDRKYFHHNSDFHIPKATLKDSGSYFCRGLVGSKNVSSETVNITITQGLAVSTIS

Take HP-F1 (antibody): in [1], the Kd is 2.3 nM, the koff stood at 0.0011 s⁻¹ and the kon came out at 460000 M⁻¹ s⁻¹. In assay [2], this substance displayed an EC50 of 0.09 µg/mL. In [3], this substance gave an EC50 of 0.56 µg/mL.

For the substance “antibody having wild type human IgG1 domain”, the Kd in assay [4] came to 734 nM; in assay [5], 962 nM; in assay [6], 2080 nM; in assay [7] it was 15000 nM; in assay [8], 1270 nM.

“human IgG1 antibody having L234A/L235E/G237A/A330S/P331S substitutions”: the equilibrium dissociation constant (Kd) in assay [8] is 714 nM.

Regarding “human IgG1 antibody having L234A/L235E/G237A/A330S/P331S substitutions (antibody; other documents disagree on this pair)”, the Kd in assay [6] was found to be 18200 nM; in [9], 21800 nM.

Regarding “human IgG1 antibody having L234A/L235E/G237A/P331S substitutions”, the Kd in assay [6] turned out to be 16800 nM; in [9] it was 16600 nM; in assay [8], 758 nM.

For “human IgG1 antibody having L234A/L235E/P331S substitutions”, the Kd is 1550 nM in assay [10]; 9920 nM in [4]; 19900 nM in assay [6]; 79800 nM in assay [9]; 1510 nM in assay [8].

For “human IgG1 antibody having L234F/L235E/P331S substitutions”, the Kd was determined as 933 nM in [10]; 8630 nM in [4]; 35600 nM in [5]; 14200 nM in [6]; 17400 nM in [9]; 627 nM in assay [8].

For “human IgG1 antibody having a N297S substitution”, the Kd in [10] was 278 nM; in [8], 712 nM.

Broadly, the Kd is the concentration at which binding is half-saturated. As usually defined, the koff is the first-order rate constant of dissociation. Broadly, the kon is the rate constant with which the complex forms. In general, EC50 refers to the midpoint of the concentration-response curve. A low value points to an effect from little substance.
